± gives the standard deviation.
Test: protein stability index of a GFP-peptide fusion (GPS, HEK-293T) (PSI 1-6); higher = more stable
[1] = treatment: DMSO, c terminus: a fixed tail appended
[2] = treatment: MLN4924 1 uM, 8 h, c terminus: a fixed tail appended
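Further: 24-mer peptide tiles fused after GFP, lentivirally expressed, FACS-sorted into six equal bins by GFP/DsRed ratio, decoded by Illumina sequencing, PSI is the read-weighted mean bin number.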

| Sequence | protein stability index [1] | protein stability index [2] | protein stability index (treatment: DMSO, c terminus: native) | protein stability index (treatment: MLN4924 1 uM, 8 h, c terminus: native) |
| --- | --- | --- | --- | --- |
| AGGRVFVLPCIQQIQRISLNTLTL [FLOT1] | 2.96 ± 0.57 | 2.93 ± 0.59 |  |  |
| VCTISSTGPLQPQPKKPEDEPQET [PKD2L1] | 5.39 ± 0.21 | 5.48 ± 0.16 |  |  |
| KHAAFVTPDQKYSMDNTPHTPTPF [MYBL2] | 3.84 ± 0.25 | 3.84 ± 0.35 |  |  |
| LTSLKDLYKSLKTLSAELVPWLNL [CEP70] | 3.15 ± 0.57 | 3.07 ± 0.42 |  |  |
| AEGRTGFPWIDAIMTQLRQEGWIH [CRY1] | 2.35 ± 0.3 | 2.13 ± 0.33 |  |  |
| AIHGYTVWAHNLIAIARLRGSDLK [FBXO33] | 3.13 ± 0.8 | 2.46 ± 0.42 |  |  |
| PVRRIDGLTDVSQIITVTVQTGLD [IQUB] | 2.47 ± 0.45 | 2.45 ± 0.52 |  |  |
| LKAKKVWYDMFRDAAAILLDEQNK [ZMAT5] | 2.38 ± 0.1 | 2.26 ± 0.17 |  |  |
| YMDRFTVAGVLPDIEQFFNIGDSS [SPNS1] | 2.71 ± 0.34 | 2.99 ± 0.18 |  |  |
| KCRSTISAEKCGPPPPIDNGDITS [CFHR2] | 4.52 ± 0.071 | 4.45 ± 0.29 |  |  |
| NVADTLVLADLHSAEQLKAQAIDF [SPOPL] | 3.46 ± 0.16 | 3.77 ± 0.57 |  |  |
| GFFSSAFQARLSGNNLHNASIPEH [POMT2] | 2.81 ± 0.44 | 3.07 ± 0.35 |  |  |
| FVQRSGNYFVTMFDDYSATLPLTL [SLC6A17] | 2.65 ± 0.18 | 2.65 ± 0.55 |  |  |
| LHLESELAQTRAEGQRQAQEYEAL [KRT18] | 5.07 ± 0.2 | 5.08 ± 0.26 |  |  |
| QRRTEASRNAADKERAAGGGAGSS [GOLPH3] | 5.54 ± 0.23 | 5.36 ± 0.15 |  |  |
| CLESTKLLADLKKCGDLECEALIN [MIA2] | 3 ± 0.32 | 3.25 ± 0.14 |  |  |
| RLAELEAQVRKLELERAQHELLLG [FBF1] | 2.97 ± 0.22 | 2.87 ± 0.14 |  |  |
| GRGGEPRAYFMSDTREEKRFLGEG [CHGB] | 4.23 ± 0.2 | 4.44 ± 0.27 |  |  |
| SDLNVVASFDRRGEYIYTGNAKGK [RBBP5] | 4.32 ± 0.6 | 4.4 ± 0.26 |  |  |
| AQGRAGAPVPEPPKEEQQQALEQF [EPB41L3] | 5.62 ± 0.27 | 5.34 ± 0.3 |  |  |
| RSCGGGVTSQERHCLQQRRKSVPG [ADAMTSL2] | 4.58 ± 0.25 |  |  |  |
| KPDYEYLRTLFTDLFEKKGYTFDY [CSNK1G1] | 2.4 ± 0.47 | 2.31 ± 0.15 |  |  |
| EPDAADGPYDPNSVRISFAKGWGP [SMAD6] | 4.17 ± 0.13 | 4.19 ± 0.17 |  |  |

| Sequence | protein stability index [1] | protein stability index [2] | protein stability index (treatment: DMSO, c terminus: native) | protein stability index (treatment: MLN4924 1 uM, 8 h, c terminus: native) |
| --- | --- | --- | --- | --- |
| HPKPKLVRVLESLLVSLVTTVVVF [CLCN6] | 3.49 ± 0.47 | 3.56 ± 0.25 |  |  |
| QTIQKTTTRRIVDGKVVSETNDTK [KRT18] | 5.34 ± 0.19 | 5.31 ± 0.23 |  |  |
| PEVECLKANTNEVLWAVVAAFTK [GOLPH3] |  |  | 2.17 ± 0.17 | 2.25 ± 0.31 |
| HLAPSEAKAADSPTRNDLESGLGH | 5.14 ± 0.34 | 5.37 ± 0.058 |  |  |
| FESGSVSFLNVTKSSLIWSYPAGS [TRIM43] | 2.13 ± 0.41 | 2.11 ± 0.13 |  |  |
| QCFFNGVFLGNKRSLSERTVDKCF [SPATS1] | 2.13 ± 0.25 | 2.34 ± 0.24 |  |  |
| LYRSRMNSLEMTPAVRQRVIEEAK [HMOX1] | 4.04 ± 0.21 | 4.06 ± 0.26 |  |  |
| IEDAAEPKEPAPPNGSAAEPPTEA [PALM] | 5.54 ± 0.24 | 5.47 ± 0.22 |  |  |
| LGSPYGQPPRFPVPHNGSSEATLP [PDLIM4] | 4.52 ± 0.31 | 4.6 ± 0.22 |  |  |
| LNELPVPMVARYIRINPQSWFDNG [CPXM2] | 2.21 ± 0.42 | 2.43 ± 0.28 |  |  |
| AATQALPQDSGTAAWKGRVLLPET [C22orf31] | 4.11 ± 0.062 | 4.1 ± 0.24 |  |  |
| FGEVRPYFYLGGARGAGPPEPLRI [TRIM35] | 2.63 ± 0.91 | 2.76 ± 0.18 |  |  |
| GRATKRRKKSGDLKKAKVQVERMR [FBXO34] | 4.25 ± 0.072 | 4.26 ± 0.65 |  |  |
| IRVKIADLGNACWVHKHFTEDIQT [SRPK2] | 2.43 ± 0.5 | 2.26 ± 0.57 |  |  |
| REPDWGDGDAPGSLLPAQVAACAQ [CEBPD] | 5.04 ± 0.28 | 4.99 ± 0.47 |  |  |
| LAYYEVCSWKGATKQRIQDQKVPY [CHIT1] | 2.71 ± 0.4 | 2.8 ± 0.37 |  |  |
| DYIRRYLPVLRGFPAKYIYDPWNA [CRY1] | 2.53 ± 0.5 | 2.16 ± 0.2 |  |  |
| ESSMEDCLAHLGEKVSQELKEPLH [BCL2L13] | 4.97 ± 0.2 | 5.09 ± 0.32 |  |  |
| FKAKEAAALGSRGSCSTEVEKETQ [ATP6V1G1] | 2.94 ± 0.44 | 3.26 ± 0.27 |  |  |
| SSPVDLVTATDQKVEKMLISSIKE [IMPA1] | 4.38 ± 0.15 | 4.28 ± 0.1 |  |  |
| SCQSFISWTGDGWEFKLSDPDEVA [ETS1] | 3.12 ± 0.13 | 3.06 ± 0.31 |  |  |
| EQTAPGDSTGYMEVSLDSLDLRVK [EHMT1] | 4.59 ± 0.32 | 4.87 ± 0.2 |  |  |
| QFLNDRLASYLEKVRQLERDNAEL [KRT33B] | 3.18 ± 0.18 | 3.33 ± 0.28 |  |  |

| Sequence | protein stability index [1] | protein stability index [2] | protein stability index (treatment: DMSO, c terminus: native) | protein stability index (treatment: MLN4924 1 uM, 8 h, c terminus: native) |
| --- | --- | --- | --- | --- |
| YVWVPIEQCLPSLENSKYCRFNQD [ATE1] | 2.3 ± 0.4 | 2.19 ± 0.12 |  |  |
| FVDSIRRQFEFSVDSFQIILDSLL [TENT5C] | 2.33 ± 0.37 | 2.31 ± 0.14 |  |  |
| KILVGNRLHLAFKRQVPTEQAQAY [RAB40B] | 2.07 ± 0.16 | 2.5 ± 0.23 |  |  |
| ATNDDPWGPSGQLMGEIAKATFMY [CLINT1] | 2.34 ± 0.38 | 2.32 ± 0.27 |  |  |
| ELDEPQHEMVAHRHRQEVLCKEMV [ZSCAN9] | 4.72 ± 0.24 | 4.76 ± 0.26 |  |  |
| MKAAVDLKPTLTIIKTEKVDLELF [ETS1] | 2.46 ± 0.35 | 2.55 ± 0.32 |  |  |
| ALRAAEVWMDDFKSHVYMAWNIPM [GALNT9] | 2.35 ± 0.8 | 2.24 ± 0.71 |  |  |
| DEGGITKQPPVTQSKTASDKSPST [FBF1] | 5.44 ± 0.21 | 5.56 ± 0.19 |  |  |
| PTVTIEGFLQALSLAVDKQFEERK [TRIP13] | 2.29 ± 0.61 | 2.13 ± 0.44 |  |  |
| GLPGSFIKEVQKGGPADLAGLEDE [PDZK1] | 5.59 ± 0.14 | 5.37 ± 0.25 |  |  |
| AMYIDTEGTFRPERLLAVAERYGL [RAD51] | 2.37 ± 0.19 | 2.39 ± 0.27 |  |  |
| SADRLTVRCGLLGSLGPVPVLRFD [TRIM14] | 2.12 ± 0.31 | 2.25 ± 0.31 |  |  |
| SSSVSISHSASATGNVCIEEIDVD [LMNB1] | 5.38 ± 0.15 | 5.4 ± 0.21 |  |  |
| LEALLEAAGIGKLSTADGKAFADP [ANKRD17] | 3.42 ± 0.38 | 3.31 ± 0.15 |  |  |
| EDVRIFFYQSPYDSEQVPQALRRL [NCF4] | 2.79 ± 0.31 | 2.98 ± 0.4 |  |  |
| LSGATKKGTEKQTTSETQKSVQCG [NETO1] | 5.17 ± 0.27 | 5.22 ± 0.24 |  |  |
| DVALVLTVLLEEETLEASVGPRET [TOR1AIP2] | 2.49 ± 0.51 | 2.27 ± 0.31 |  |  |
| LIKKYSDHLENVSKLVESGIQFMD [TRIM55] | 2.27 ± 0.18 | 2.66 ± 0.2 |  |  |
| PNIRNMAPNSLSAPTMLHNSSGDF [TRAF3IP2] | 4.16 ± 0.34 | 4.43 ± 0.19 |  |  |
| GQYRANEGTSSIVMEIQKQIEKKE [TAF7L] | 5.06 ± 0.35 | 5.16 ± 0.46 |  |  |
| LCGAGSEPSIAPTSCAGNLPSRPP [RSPH3] | 4.36 ± 0.36 | 4.28 ± 0.21 |  |  |
| TSGKLLLEADELCDDGGDGRGAVV [ZBTB22] | 5.36 ± 0.29 | 5.31 ± 0.1 |  |  |
| FYMFAWTHVTLLITVTQSHLVIQN [CDS1] | 3.01 ± 0.38 | 3 ± 0.3 |  |  |

| Sequence | protein stability index [1] | protein stability index [2] | protein stability index (treatment: DMSO, c terminus: native) | protein stability index (treatment: MLN4924 1 uM, 8 h, c terminus: native) |
| --- | --- | --- | --- | --- |
| RLRQLKVRNDSCVVHEDFREDILS [PKD2L1] | 3.47 ± 0.43 | 3.65 ± 0.43 |  |  |
| EAVLHCHQMGVVHRDLKPENLLLA [CAMK2A] | 2.64 ± 0.27 | 2.58 ± 0.38 |  |  |
| YERSFIHKIKHKHILAKNYFSQVP [IQUB] | 2.12 ± 0.61 | 2.24 ± 0.27 |  |  |
| RNTPIEALCENFPEEMATYLRYVR [CSNK1G1] | 2.84 ± 0.26 | 2.9 ± 0.56 |  |  |
| GLDPCLLEDELDKSVQGTGLAFIA [SLC6A17] | 3.28 ± 0.31 | 3.28 ± 0.44 |  |  |
| GEDSSTSSSTPLEDEEPQEPNRLE [RTN2] | 5.56 ± 0.26 | 5.57 ± 0.25 |  |  |
| VNVTIHFRLKTINLQSLINNEIPD [MCOLN1] | 3.28 ± 0.25 | 3.21 ± 0.25 |  |  |
| EGTNGQLDYSFGDHTSEAVRNLFG [PCDHGC5] | 3.89 ± 0.13 | 3.9 ± 0.32 |  |  |
| RQEYQKALQEYSSISEKLSSTNFA [C8orf76] | 3.48 ± 0.26 | 3.69 ± 0.18 |  |  |
| QAPKSKSGSRPRKPPPRKHTRSWA [LRRC59] | 4.05 ± 0.21 | 4.15 ± 0.29 |  |  |
| MPYISDKHPRQTLEVINLLRKHRE [KLHL20] | 2.86 ± 0.51 | 2.98 ± 0.26 |  |  |
| RLASFDSSGKLICSRTTGYQILTL [GMCL1] | 2.63 ± 0.93 | 2.55 ± 0.19 |  |  |
| KKNSNMTYEKLSRAMRYYYKREIL [ELF3] | 2.33 ± 0.25 | 2.27 ± 0.47 |  |  |
| TRHVFTCGRRGIKVWSLTGQVAED [TLE6] | 2.62 ± 0.14 | 2.68 ± 0.25 |  |  |
| RLLSVPELCHHVAEVWVSGTIFIR [RETREG3] | 2.96 ± 0.4 | 2.69 ± 0.53 |  |  |
| EERVRVLQGVRLSENVVNRMKEPS [CHCHD6] | 4.6 ± 0.51 | 4.64 ± 0.19 |  |  |
| NSHQDFWTVWSGNRASLYSFPEPE [PRAME] | 2.49 ± 0.19 | 2.67 ± 0.38 |  |  |
| KLHYPELYVLKGGYKEFFMKCQSY [CDC25A] | 2.42 ± 0.5 | 2.04 ± 0.33 |  |  |
| NVSLGPGVVVEDGVCIRRCTVLRD [GMPPB] | 3.54 ± 0.27 | 3.44 ± 0.29 |  |  |
| AQLELYQLQVESNSSQLLLRRHAG [SCARA5] | 2.71 ± 0.26 | 2.9 ± 0.25 |  |  |
